Measured values: the supplement of paper PMC10126150
± gives the standard deviation of the averaged measurements.

tested on: ATP; assay: switch fluorescence ratio, 500 uM ATP over buffer (Cy3 cluster intensity, sum of 5 cycles each) (fold (ratio)); higher = stronger signal-on switching upon ATP binding; sequences stand for … in TCGTCGGCAGCGTCAGATGTGTATAAGAGACAGTTTTTTTTTTTTTTTTTTTTTTTTT…TC; details: aptamer strand: ATP DNA aptamer (quencher-CACCTGGGGGAGTATTGCGGAGGAAGG + anchor), 100 nM annealed; ATP concentration: 500 uM
Method in brief: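 Cy3-labelled switching-strand clusters on a modified Illumina MiSeq flow-cell were annealed to 100 nM quencher-labelled ATP aptamer, imaged in selection buffer, then imaged after 15 min with 500 uM ATP at 22 °C. Five buffer/ATP cycles ran, with NaOH stripping and re-annealing between them. The fluorescence ratio is summed target-cycle over summed buffer-cycle Cy3 intensity per cluster, averaged per switch-domain sequence. Clusters outside 100-1000 RFU were excluded.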
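Further: ATP exposure 15 min at 22 °C before imaging.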

| Sequence | switch fluorescence ratio |
| --- | --- |
| TCTTTGATGA | 0.983 ± 0.051 |
| TCTTTGGGGA | 1.04 ± 0.04 |
| TCTTTGTCGG | 0.977 ± 0.029 |
| TCTTTTTATA | 1.04 ± 0.017 |
| TCTTTTTCCC | 1.01 ± 0.022 |
| TCTTTTTGTT | 0.99 ± 0.018 |
| TGAAAAAAAA | 0.971 ± 0.025 |
| TGAAAAAAT | 0.977 ± 0.051 |
| TGAAAAAATC | 0.987 ± 0.019 |
| TGAAAACACC | 1.13 ± 0.15 |
| TGAAAACGGG | 1.022 ± 0.0095 |
| TGAAAATAGT | 0.965 ± 0.029 |
| TGAAACTTGT | 1.01 ± 0.041 |
| TGAAAGATGT | 1.01 ± 0.035 |
| TGAAAGCACA | 1.11 ± 0.06 |
| TGAAAGCCCG | 1.048 ± 0.0056 |
| TGAAAGTATT | 1 ± 0.022 |
| TGAAATAGGA | 1.01 ± 0.039 |
| TGAAATATTC | 0.993 ± 0.019 |
| TGAAATGATG | 0.9977 ± 0.0082 |
| TGAAATGGCT | 0.997 ± 0.034 |
| TGAAATTACG | 1.03 ± 0.022 |
| TGAAATTACT | 1.05 ± 0.033 |
| TGAACGACAG | 1.031 ± 0.0093 |
| TGAACTGCTG | 1.017 ± 0.0049 |

| Sequence | switch fluorescence ratio |
| --- | --- |
| TGAACTTGAG | 1.01 ± 0.0062 |
| TGAAGAAAGG | 0.981 ± 0.02 |
| TGAAGATATA | 0.99 ± 0.015 |
| TGAAGATATT | 0.993 ± 0.023 |
| TGAAGCATCC | 1.822 ± 0.0073 |
| TGAAGCTGCC | 1.28 ± 0.042 |
| TGAAGCTTTA | 1.06 ± 0.048 |
| TGAAGGATGA | 0.9978 ± 0.0058 |
| TGAAGGGCGT | 0.9927 ± 0.0081 |
| TGAAGGGGAA | 1.02 ± 0.061 |
| TGAAGGGTGA | 1.007 ± 0.0094 |
| TGAAGGGTTG | 1.01 ± 0.026 |
| TGAAGTATGA | 1.03 ± 0.045 |
| TGAAGTATTT | 1 ± 0.037 |
| TGAAGTTAGT | 0.975 ± 0.03 |
| TGAAGTTTTA | 0.989 ± 0.025 |
| TGAATAAAGC | 1.05 ± 0.02 |
| TGAATACTTT | 0.996 ± 0.044 |
| TGAATCTTGG | 1.02 ± 0.044 |
| TGAATGGGGA | 1.01 ± 0.029 |
| TGAATGGTCT | 1.01 ± 0.03 |
| TGAATTTCTT | 0.986 ± 0.022 |
| TGAATTTTAT | 0.9885 ± 0.0073 |
| TGAATTTTGT | 0.978 ± 0.036 |
| TGACAAAGGG | 0.988 ± 0.024 |

| Sequence | switch fluorescence ratio |
| --- | --- |
| TGACACAGGA | 1.04 ± 0.024 |
| TGACAGCCTT | 1.068 ± 0.0032 |
| TGACAGGGGA | 1.02 ± 0.033 |
| TGACAGTGAA | 1.01 ± 0.02 |
| TGACATTCGA | 1.0321 ± 0.00051 |
| TGACCAGGCA | 1.05 ± 0.056 |
| TGACCGTTTT | 0.999 ± 0.025 |
| TGACGACGCC | 4.6 ± 0.054 |
| TGACGAGCGA | 2.25 ± 0.24 |
| TGACGAGTAA | 1.5 ± 0.28 |
| TGACGGATGC | 1.197 ± 0.01 |
| TGACGGTAGC | 1.06 ± 0.056 |
| TGACGGTTTA | 1.023 ± 0.0016 |
| TGACGTACCC | 1.7 ± 0.05 |
| TGACGTGCGT | 1.02 ± 0.012 |
| TGACTAAACA | 1.056 ± 0.0059 |
| TGACTAGGGG | 0.949 ± 0.1 |
| TGACTGAAAA | 1.009 ± 0.007 |
| TGACTGGGTA | 1 ± 0.021 |
| TGACTGTTTG | 0.984 ± 0.04 |
| TGACTTAACT | 1.09 ± 0.034 |
| TGACTTGAGC | 1.01 ± 0.058 |
| TGACTTGGG | 0.935 ± 0.02 |
| TGACTTGGGG | 0.995 ± 0.033 |
| TGAGAAAGGG | 0.982 ± 0.0019 |

| Sequence | switch fluorescence ratio |
| --- | --- |
| TGAGAAAGGT | 0.965 ± 0.044 |
| TGAGAAGGGA | 1.02 ± 0.22 |
| TGAGAAGTCA | 0.9785 ± 0.0066 |
| TGAGAATGTT | 1.09 ± 0.19 |
| TGAGAGGTCT | 1.017 ± 0.0097 |
| TGAGAGTCAG | 0.986 ± 0.017 |
| TGAGAGTTAT | 1 ± 0.051 |
| TGAGAGTTTT | 0.978 ± 0.036 |
| TGAGATAACA | 0.9943 ± 0.0033 |
| TGAGATACGA | 1.0108 ± 0.0001 |
| TGAGATCCCT | 1.03 ± 0.039 |
| TGAGATGGTC | 1.004 ± 0.01 |
| TGAGATTTTG | 0.983 ± 0.045 |
| TGAGCCATCG | 0.987 ± 0.02 |
| TGAGCGAGTG | 0.957 ± 0.028 |
| TGAGCGGCAA | 1.2 ± 0.22 |
| TGAGCGGTTG | 1 ± 0.018 |
| TGAGCGTCGG | 0.968 ± 0.051 |
| TGAGCGTTGG | 0.9987 ± 0.0062 |
| TGAGCTATTG | 0.997 ± 0.015 |
| TGAGGAAGAC | 1.09 ± 0.014 |
| TGAGGAATTC | 1 ± 0.017 |
| TGAGGAGGG | 0.97516 ± 0.00046 |
| TGAGGAGGGA | 0.987 ± 0.013 |
| TGAGGATTTG | 1.02 ± 0.011 |
